Source: PMC6436931, “Activation of the Endonuclease that Defines mRNA 3′ Ends Requires Incorporation into an 8-Subunit Core Cleavage and Polyadenylation Factor Complex” (Molecular Cell, 2019)

T1: Cft2 (Saccharomyces cerevisiae, UniProt Q12102 1-859)
T1 sequence: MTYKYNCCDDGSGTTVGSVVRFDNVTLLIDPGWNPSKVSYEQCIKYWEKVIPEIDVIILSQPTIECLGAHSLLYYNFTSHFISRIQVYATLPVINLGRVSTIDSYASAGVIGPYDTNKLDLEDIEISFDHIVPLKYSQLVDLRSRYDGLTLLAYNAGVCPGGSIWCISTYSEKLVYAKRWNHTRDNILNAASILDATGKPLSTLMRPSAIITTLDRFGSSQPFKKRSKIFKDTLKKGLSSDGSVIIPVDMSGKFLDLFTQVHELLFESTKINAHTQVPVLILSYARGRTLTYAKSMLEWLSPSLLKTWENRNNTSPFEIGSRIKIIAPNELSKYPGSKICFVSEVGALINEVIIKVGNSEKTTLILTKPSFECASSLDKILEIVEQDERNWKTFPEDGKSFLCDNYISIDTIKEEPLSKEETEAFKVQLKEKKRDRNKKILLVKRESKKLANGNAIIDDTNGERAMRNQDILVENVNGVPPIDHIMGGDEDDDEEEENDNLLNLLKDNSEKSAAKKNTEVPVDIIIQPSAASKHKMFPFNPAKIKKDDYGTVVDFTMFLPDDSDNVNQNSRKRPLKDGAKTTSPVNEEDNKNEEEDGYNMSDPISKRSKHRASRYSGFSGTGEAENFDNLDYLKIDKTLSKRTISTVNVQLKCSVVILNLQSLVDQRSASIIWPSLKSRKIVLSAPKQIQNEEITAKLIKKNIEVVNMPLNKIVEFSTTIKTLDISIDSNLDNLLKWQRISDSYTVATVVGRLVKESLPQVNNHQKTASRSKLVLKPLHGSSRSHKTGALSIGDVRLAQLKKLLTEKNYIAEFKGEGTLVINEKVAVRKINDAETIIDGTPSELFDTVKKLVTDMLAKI

T2: Hrp1 (CF IB) (Saccharomyces cerevisiae, UniProt Q99383 1-534)
T2 sequence: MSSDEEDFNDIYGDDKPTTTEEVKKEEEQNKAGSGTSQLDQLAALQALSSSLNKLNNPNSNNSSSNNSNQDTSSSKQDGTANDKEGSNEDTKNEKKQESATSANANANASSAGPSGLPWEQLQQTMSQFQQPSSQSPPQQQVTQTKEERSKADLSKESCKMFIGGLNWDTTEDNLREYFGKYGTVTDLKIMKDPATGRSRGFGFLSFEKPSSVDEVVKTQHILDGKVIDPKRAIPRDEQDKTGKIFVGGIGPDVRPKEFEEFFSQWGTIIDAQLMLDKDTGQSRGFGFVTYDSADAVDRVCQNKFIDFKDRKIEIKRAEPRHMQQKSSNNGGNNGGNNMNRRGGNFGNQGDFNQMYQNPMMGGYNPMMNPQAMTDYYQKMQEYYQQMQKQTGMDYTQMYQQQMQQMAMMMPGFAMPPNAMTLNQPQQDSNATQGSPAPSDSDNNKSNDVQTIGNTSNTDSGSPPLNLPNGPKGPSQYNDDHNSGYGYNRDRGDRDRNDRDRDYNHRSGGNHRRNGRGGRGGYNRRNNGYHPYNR


Assays:
[1] = target: T3, CPFpol (no Pap1): Cft1-Pfs2_(-3C-SII)-Yth1_(-3C-8H)-Fip1 (S. cerevisiae, UniProt Q06632 1-1357; P42841 1-465; Q06102 1-208; P45976 1-327); experiment: pull-down; Strep-tagged bait proteins and complexes (100 μL at 1.5 μM) immobilised on Streptactin beads; prey CF IA, CF IB, Rna14-Rna15 or Pcf11-Clp1 (20 μL at 4.0 μM) bound 60 min at 4°C; 10 mM HEPES pH 7.9, 150 mM NaCl, 0.5 mM Mg(OAc)2, 0.05% Tween-20; SDS-PAGE, InstantBlue; conditions: both partners purified
T3 construct: Cft1, S. cerevisiae; Pfs2, S. cerevisiae; Yth1, S. cerevisiae; Fip1, S. cerevisiae; also called polymerase module without Pap1; source: Sf9, purified as described previously (Casañal et al., 2017); not shown: StrepII, C-terminal, kept; copies: + + +

[2] = target: T4, CPF_(core): Cft1-Pfs2_(-3C-SII)-Yth1_(-3C-8H)-Fip1-Pap1-Cft2-Ysh1-Mpe1 (S. cerevisiae, UniProt Q06632 1-1357; P42841 1-465; Q06102 1-208; P45976 1-327; P29468 1-568; Q12102 …); experiment: as above; conditions: both partners purified
T4 construct: Cft1, S. cerevisiae; Pfs2, S. cerevisiae; Yth1, S. cerevisiae; Fip1, S. cerevisiae; Pap1, S. cerevisiae; Cft2, S. cerevisiae; Ysh1, S. cerevisiae; Mpe1, S. cerevisiae; also called eight-subunit core cleavage and polyadenylation factor complex; source: Sf9, co-expressed from one multi-gene baculovirus construct, purified (StrepTactin, Mono Q, Superose 6); not shown: StrepII, C-terminal, kept; …

[3] = target: T5, CPFpol: Cft1-Pfs2_(-3C-SII)-Yth1_(-3C-8H)-Fip1-Pap1 (S. cerevisiae, UniProt Q06632 1-1357; P42841 1-465; Q06102 1-208; P45976 1-327; P29468 1-568); experiment: as above; conditions: both partners purified
T5 construct: Cft1, S. cerevisiae; Pfs2, S. cerevisiae; Yth1, S. cerevisiae; Fip1, S. cerevisiae; Pap1, S. cerevisiae; also called polymerase module; source: Sf9, purified as described previously (Casañal et al., 2017); not shown: StrepII, C-terminal, kept; copies: + + + +

Pap1 = Pap1 (Saccharomyces cerevisiae, UniProt P29468 1-568); experiment: EMSA; EMSA: 50 nM RNA, 0.25-4.0 uM protein, protein diluted in 10 mM HEPES pH 7.9, 150 mM NaCl, 0.5 mM Mg(OAc)2, plus 1x loading dye (orange G, glycerol, EDTA); 30 min on ice; native 6% acrylamide/TBE PAGE; conditions: protein: recombinant; tags: SII (Pap1-SII) when alone; untagged in CPFpol and CPFcore; label: 5'-FAM
Cft2 = target: T1, Cft2; experiment: as above; conditions: protein: recombinant; tags: SII (Cft2-SII) when alone; untagged in CPFpol+Cft2 and CPFcore; label: 5'-FAM
Hrp1 (CF IB) = target: T2, Hrp1 (CF IB); experiment: as above; conditions: protein: recombinant; tags: 6H (6H-Hrp1); label: 5'-FAM

Chain of Pap1 (P29468 whole entry): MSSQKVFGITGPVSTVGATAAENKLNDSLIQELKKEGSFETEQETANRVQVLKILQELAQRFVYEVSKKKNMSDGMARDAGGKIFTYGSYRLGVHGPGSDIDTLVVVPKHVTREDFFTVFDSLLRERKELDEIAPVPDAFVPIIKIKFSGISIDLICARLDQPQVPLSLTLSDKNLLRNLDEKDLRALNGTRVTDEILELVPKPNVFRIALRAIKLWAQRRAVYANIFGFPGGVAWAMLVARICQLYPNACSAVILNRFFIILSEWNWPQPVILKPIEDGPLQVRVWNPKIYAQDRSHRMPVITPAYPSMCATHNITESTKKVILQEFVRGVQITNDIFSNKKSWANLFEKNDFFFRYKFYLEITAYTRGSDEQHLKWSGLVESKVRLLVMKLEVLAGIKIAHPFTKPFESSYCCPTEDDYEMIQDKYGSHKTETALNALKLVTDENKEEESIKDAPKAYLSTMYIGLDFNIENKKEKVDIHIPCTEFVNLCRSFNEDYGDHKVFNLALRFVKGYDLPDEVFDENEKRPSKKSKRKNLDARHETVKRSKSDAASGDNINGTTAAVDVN
T3 sequence (Q06632 whole entry, chain 1 of 4): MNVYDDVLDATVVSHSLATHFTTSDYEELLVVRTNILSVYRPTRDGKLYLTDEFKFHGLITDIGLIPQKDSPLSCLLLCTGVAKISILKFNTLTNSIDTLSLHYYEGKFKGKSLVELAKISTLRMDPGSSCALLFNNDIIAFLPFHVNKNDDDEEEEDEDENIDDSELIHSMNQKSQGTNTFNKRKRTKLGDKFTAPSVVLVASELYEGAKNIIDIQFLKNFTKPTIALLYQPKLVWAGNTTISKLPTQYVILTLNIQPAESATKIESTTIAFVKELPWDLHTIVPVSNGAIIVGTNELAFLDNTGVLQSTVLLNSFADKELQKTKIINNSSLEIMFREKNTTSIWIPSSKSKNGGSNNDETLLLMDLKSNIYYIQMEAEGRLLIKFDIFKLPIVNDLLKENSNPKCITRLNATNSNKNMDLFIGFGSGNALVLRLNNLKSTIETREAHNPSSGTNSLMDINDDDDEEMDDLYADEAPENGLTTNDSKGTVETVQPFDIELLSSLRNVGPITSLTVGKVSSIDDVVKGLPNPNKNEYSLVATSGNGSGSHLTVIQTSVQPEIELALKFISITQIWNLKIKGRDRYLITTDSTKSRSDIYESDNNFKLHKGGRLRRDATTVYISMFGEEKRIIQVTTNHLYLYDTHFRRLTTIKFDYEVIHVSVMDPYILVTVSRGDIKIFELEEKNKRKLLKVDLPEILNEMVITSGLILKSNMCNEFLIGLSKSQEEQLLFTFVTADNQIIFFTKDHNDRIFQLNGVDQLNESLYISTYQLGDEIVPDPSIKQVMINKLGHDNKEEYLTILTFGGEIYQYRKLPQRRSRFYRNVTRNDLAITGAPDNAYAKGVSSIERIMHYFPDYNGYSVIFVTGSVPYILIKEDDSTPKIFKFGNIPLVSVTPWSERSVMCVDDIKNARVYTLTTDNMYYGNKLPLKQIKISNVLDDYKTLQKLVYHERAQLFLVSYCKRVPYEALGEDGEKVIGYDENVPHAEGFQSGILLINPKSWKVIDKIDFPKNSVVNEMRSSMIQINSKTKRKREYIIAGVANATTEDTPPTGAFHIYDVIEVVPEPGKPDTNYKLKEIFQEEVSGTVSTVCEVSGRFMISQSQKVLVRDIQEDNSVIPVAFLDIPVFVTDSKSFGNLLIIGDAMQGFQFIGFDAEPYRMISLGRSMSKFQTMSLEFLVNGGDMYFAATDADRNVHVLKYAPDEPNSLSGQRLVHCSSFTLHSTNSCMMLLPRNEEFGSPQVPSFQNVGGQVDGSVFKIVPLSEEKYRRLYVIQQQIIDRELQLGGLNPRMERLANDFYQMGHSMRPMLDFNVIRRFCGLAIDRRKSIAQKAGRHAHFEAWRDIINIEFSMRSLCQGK
T3 sequence (P42841 whole entry, chain 2 of 4): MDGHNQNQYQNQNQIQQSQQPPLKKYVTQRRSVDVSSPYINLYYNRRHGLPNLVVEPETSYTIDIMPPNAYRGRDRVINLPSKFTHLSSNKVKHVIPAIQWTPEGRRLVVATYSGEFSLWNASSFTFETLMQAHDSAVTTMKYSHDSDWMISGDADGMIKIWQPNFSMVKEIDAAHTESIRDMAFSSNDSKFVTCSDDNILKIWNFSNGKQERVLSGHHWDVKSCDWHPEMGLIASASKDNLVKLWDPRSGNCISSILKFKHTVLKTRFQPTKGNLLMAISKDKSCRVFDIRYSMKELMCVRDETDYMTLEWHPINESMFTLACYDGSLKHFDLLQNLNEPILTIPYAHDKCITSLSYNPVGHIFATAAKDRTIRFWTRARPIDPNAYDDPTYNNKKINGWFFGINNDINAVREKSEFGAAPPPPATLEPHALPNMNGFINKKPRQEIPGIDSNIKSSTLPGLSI
T3 sequence (Q06102 whole entry, chain 3 of 4): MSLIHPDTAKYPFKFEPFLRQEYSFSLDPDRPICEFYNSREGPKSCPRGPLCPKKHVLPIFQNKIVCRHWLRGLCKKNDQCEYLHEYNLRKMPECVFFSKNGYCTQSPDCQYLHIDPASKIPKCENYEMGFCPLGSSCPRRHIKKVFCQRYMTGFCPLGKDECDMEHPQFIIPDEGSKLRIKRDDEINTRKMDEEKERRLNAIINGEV
T3 sequence (P45976 whole entry, chain 4 of 4): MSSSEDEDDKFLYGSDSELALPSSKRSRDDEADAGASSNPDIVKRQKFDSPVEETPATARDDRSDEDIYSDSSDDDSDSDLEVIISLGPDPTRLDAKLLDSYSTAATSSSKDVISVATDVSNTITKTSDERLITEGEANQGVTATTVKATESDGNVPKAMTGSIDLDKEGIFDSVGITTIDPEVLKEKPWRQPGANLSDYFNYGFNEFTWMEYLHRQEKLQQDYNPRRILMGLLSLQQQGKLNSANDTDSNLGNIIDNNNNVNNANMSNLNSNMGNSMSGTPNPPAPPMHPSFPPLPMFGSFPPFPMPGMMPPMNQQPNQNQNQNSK

binding result [1] | binding result [2] | binding result [3] | Binder | binding result (Pap1) | binding result (Cft2) | binding result (Hrp1 (CF IB))
binds | binds | binds | Rna14-Rna15 complex (6H-Rna14-Rna15) (complex, S. cerevisiae, Rna14, S. cerevisiae; Rna15, S. cerevisiae; The pull-down methods call the prey 'untagged' though the construct carries a His6 tag; also called Rna14–15; source: E. coli BL21 Star (DE3), purified as described previously (Gordon et al., 2011)) chain 1: MSSSTTPDLLYPSADKVAEPSDNIHGDELRLRERIKDNPTNILSYFQLIQYLETQESYAKVREVYEQFHNTFPFYSPAWTLQLKGELARDEFETVEKILAQCLSGKLENNDLSLWSTYLDYIRRKNNLITGGQEARAVIVKAFQLVMQKCAIFEPKSSSFWNEYLNFLEQWKPFNKWEEQQRIDMLREFYKKMLCVPFDNLEKMWNRYTQWEQEINSLTARKFIGELSAEYMKARSLYQEWLNVTNGLKRASPINLRTANKKNIPQPGTSDSNIQQLQIWLNWIKWERENKLMLSEDMLSQRISYVYKQGIQYMIFSAEMWYDYSMYISENSDRQNILYTALLANPDSPSLTFKLSECYELDNDSESVSNCFDKCTQTLLSQYKKIASDVNSGEDNNTEYEQELLYKQREKLTFVFCVYMNTMKRISGLSAARTVFGKCRKLKRILTHDVYVENAYLEFQNQNDYKTAFKVLELGLKYFQNDGVYINKYLDFLIFLNKDSQIKTLFETSVEKVQDLTQLKEIYKKMISYESKFGNLNNVYSLEKRFFERFPQENLIEVFTSRYQIQNSNLIKKLELTYMYNEEEDSYFSSGNGDGHHGSYNMSSSDRKRLMEETGNNGNFSNKKFKRDSELPTEVLDLLSVIPKRQYFNTNLLDAQKLVNFLNDQVEIPTVESTKSG chain 2: MNRQSGVNAGVQNNPPSRVVYLGSIPYDQTEEQILDLCSNVGPVINLKMMFDPQTGRSKGYAFIEFRDLESSASAVRNLNGYQLGSRFLKCGYSSNSDISGVSQQQQQQYNNINGNNNNNGNNNNNSNGPDFQNSGNANFLSQKFPELPSGIDVNINMTTPAMMISSELAKKPKEVQLKFLQKFQEWTRAHPEDAVSLLELCPQLSFVTAELLLTNGICKVDDLIPLASRPQEEASATNNNSVNEVVDPAVLNKQKELLKQVLQLNDSQISILPDDERMAIWDLKQKALRGEFGAF |  |  | 
 |  |  | AAAAAAAAAAAAAAA (ssRNA) [A15] | no binding | no binding | 
 |  |  | CGUUAUUUAUAUUUCAAAUUUUUCU (ssRNA) [CYC1f EMSA probe] | no binding | binds | binds
 |  |  | CCCCCCCCCCCCCCC (ssRNA) [C15] | no binding | no binding | no binding
 |  |  | AAGAACGUUAUUUAUAUUUCAAAUUUUUCUUUUUU (ssRNA) [CYC1d EMSA probe] | no binding | binds | binds
 |  |  | GGGGGGGGGGGGGGG (ssRNA) [G15] | no binding | binds | binds
 |  |  | UUUUUUUUUUUUUUU (ssRNA) [U15] | no binding | no binding | binds
